This note sets out measurements from US20060233708A1.

Assay [1] deals with TGF-β receptors in mink lung epithelial cells. The assay is described as follows: specific binding of 0.1 nM 125I-TGF-β1 to mink lung epithelial cells.
Assay [2] has the same target. The experiment in a line: specific binding of 125I-TGF-β1 to mink lung epithelial cells without peptide.
The target is the same in assay [3]. The experiment in a line: competition with 125I-TGF-β1 for binding to mink lung epithelial cells.
Assay [4] has the same target.
For assay [5] the target is unchanged. The assay is described as follows: specific binding of 125I-TGF-β2 to mink lung epithelial cells without peptide.
Assay [6] has the same target. The experiment in a line: competition with 125I-TGF-β1 for binding to mink lung epithelial cells. The source holds these as a separate data set.
Assay [7] has the same target. The experiment in a line: competition with 125I-TGF-β3 for binding to mink lung epithelial cells.
Assay [8] deals with type I TGF-β receptor (mink). The assay is described as follows: inhibition of 125I-TGF-β1 affinity labeling of receptors on mink lung epithelial cells.
In assay [9] the target is type II TGF-β receptor (mink). The description is as above.
Assay [10] addresses type V TGF-β receptor (mink). The description is as above.
Assay [11] concerns the target type III TGF-β receptor (mink). The assay is described as above.
The target of assay [12] is TGF-β receptors in mink lung epithelial cells. The experiment in a line: competition with 125I-TGF-β2 for binding to mink lung epithelial cells.
Assay [13] shares this target. The assay is described as follows: specific binding of 125I-TGF-β3 to mink lung epithelial cells without peptide.

Where “and” joins values, the source holds several entries; their conditions need not be identical. Equal values may be shown once. Ends that are not written are not given here.

In turn, TGF-β1 (ligand) yielded a specific binding without peptides in assay [1] of 3670 cpm/well. The molecule further had a specific binding (0% inhibition) in assay [2] of 3930 cpm/well.
What is called IC50 is the concentration needed to halve the response being measured. In assay [3], “peptide β1^25 (41-65)-carbonic anhydrase (CA) conjugate (from UniProt P00915)” yielded an IC50 of 50 nM and a fold lower IC50 than peptide β1^25 (41-65) prior to conjugation of 20 fold. For the same molecule, the ED50 of growth inhibition as measured by DNA synthesis in mink lung epithelial cells in [4] was 100 nM.
The corresponding values for “peptide β1^25 (41-65)-bovine serum albumin (BSA) conjugate (from UniProt P02769)” are 60 nM, 20 fold and 100 nM.

B1: TGF-β2 (ligand)
chain: ALDAAYCFRNVQDNCCLRPLYIDFKRDLGWKWIHEPKGYNANFCAGACPYLWSSDTQHSRVLSLYNTINPEASASPCCVSQDLEPLTILYYIGKTPKIEQLSNMIVKSCKCS
modifications: ^125I-labelled (iodination with Na^125I)
On to B1, for which the specific binding (0% inhibition) in [5] is 4510 cpm/well.

B2: peptide β1^10 (49-58) (peptide)
peptide: PYIWSLDTQY
In the case of B2, the IC50 in assay [6] was in the range of 40000 to 70000 nM.

B3: peptide β1^25 (41-65) (peptide)
peptide: ANFCLGPCPYIWSLDTQYSKVLALY
modifications: not fully specified; cysteine pairing not given here
As to B3, the IC50 is 60 to 80 nM in assay [7]; 1000 nM and 2000 nM in assay [6]; 1000 nM and 2000 nM in [12]. Moreover, the percent inhibition of ^125I-TGF-β1-affinity labeling at 2.3 µM in assay [8], in assay [9] and in [11] was 30 to 40% in each case. Also, the concentration at which ^125I-TGF-β1-affinity labeling was almost completely abolished in assay [10] stood at 2.3 µM. The concentration of complete inhibition of ^125I-TGF-β1 binding in [6] was determined as 34 µM.

B4: peptide β2^10 (49-58) (peptide)
peptide: PYLWSSDTQH
On to B4, for which the IC50 in assay [6] was in the range of 40000 to 70000 nM.

B5: peptide β3^25 (41-65) (peptide)
peptide: ANFCSGPCPYLRSADTTHSTVLGLY
modifications: not fully specified; cysteine pairing not given here
For B5, the IC50 in [7] was 60 to 80 nM; in assay [6], 20000 nM; in [12] it was 20000 nM.

B6: peptide β2^25 (41-65) (peptide)
peptide: ANFCAGACPYLWSSDTQHSRVLSLY
modifications: not fully specified; cysteine pairing not given here
Take B6: the IC50 is 80 nM in assay [7]; 1000 nM and 2000 nM in assay [6]; 1000 nM and 2000 nM in assay [12].

B7: peptide β2^10 (49-58) S53A (peptide)
peptide: PYLWASDTQH
Molecule B7 had an IC50 in assay [6] of 40000 nM.

B8: TGF-β3 (ligand)
chain: ALDTNYCFRNLEENCCVRPLYIDFRQDLGWKWVHEPKGYYANFCSGPCPYLRSADTTHSTVLGLYNTLNPEASASPCCVPQDLEPLTILYYVGRTPKVEQLSNMVVKSCKCS
modifications: ^125I-labelled (iodination with Na^125I)
The molecule B8 came in with a specific binding (0% inhibition) in [13] of 4220 cpm/well.
